Test results reported in PMC10533412 (Nature, 2023).

Target: the molecule itself
Test: SEC-MALS; single protein at 5 mg/ml, Superdex 200, 20 mM HEPES pH 7.5, 150 mM NaCl

B1: BTN2A1 B30.2 domain (domain or fragment, human)
chain: EELRWRRTFLHAVDVVLDPDTAHPDLFLSEDRRSVRRCPFRHLGESVPDNPERFDSQPCVLGRESFASGKHYWEVEVENVIEWTVGVCRDSVERKGEVLLIPQNGFWTLEMHKGQYRAVSSPDRILPLKESLCRVGVFLDYEAGDVSFYNMRDRSHIYTCPRSAFSVPVRPFFRLGCEDSPIFICPALTGANGVTVPEEGLTLHRVGTHQSL
notes: butyrophilin 2A1 (BTN2A1), human, intracellular B30.2 domain with the C-terminal tail; Homodimer by SEC-MALS and in the crystals; source: E. coli BL21 (DE3), purified (Ni-NTA, TEV cleavage, Ni-NTA or DEAE Sepharose)
- stoichiometry N: 2
